Measurements from patent publication US20230048360A1 (EUREKA THERAPEUTICS, published 2023).

Experiments:
[1] = target: T1, cell surface-bound human GPC3 on GPC3+ HepG2 cells (human, UniProt P51654 25-560, GPI anchor and heparin sulfate side chains, as the filing describes native GPC3); assay: FACS on GPC3+ HepG2 cells, labelled on the sheet GPC3A L2K against control L2K; control L2K median 93.8; axis PE-A
T1 construct: Endogenous GPC3 of the HepG2 line; also called Glypican 3; native GPC3

[2] = target: T1, cell surface-bound human GPC3 on GPC3+ …; assay: apparent Kd from FACS on GPC3+ HepG2 cells
[3] = target: T1, cell surface-bound human GPC3 on GPC3+ …; assay: FACS titration on GPC3+ HepG2 cells, anti-His detection
[4] = target: T2, biotinylated recombinant human GPC3(560) (human, biotin on the C-terminal BirA substrate peptide ; Biotin on a lysine of the C-terminal BirA substrate peptide, which is not in the letters.); assay: SPR, Biacore X100, single-cycle kinetics, bt-GPC3(560) captured on chip, 1:1 model
T2 construct: Made in E. coli BL21 (pET-27b) from inclusion bodies and biotinylated with BirA; also called bt-GPC3(560); soluble bt-GPC3(560) protein

[5] = target: T1, cell surface-bound human GPC3 on GPC3+ …; assay: FACS, phage on GPC3+ HepG2 cells
[6] = target: T1, cell surface-bound human GPC3 on GPC3+ …; assay: apparent Kd from FACS on GPC3+ HepG2 cells; the row is GC33 L2K by paragraph 806
[7] = target: T1, cell surface-bound human GPC3 on GPC3+ …; assay: FACS titration on GPC3+ HepG2 cells, anti-His detection; the row is GC33 L2K by paragraph 806
[8] = target: T1, cell surface-bound human GPC3 on GPC3+ …; assay: flow cytometry at 10 µg/mL, PE anti-mouse IgG detection
[9] = target: T3, biotinylated GPC3-51mer fragment (human, biotinylated (site not stated)); assay: phage ELISA on biotinylated GPC3-51mer
T3 construct: Synthesized by Elim Biopharmaceuticals; also called bt-GPC3-51mer; hGPC3-51mer fragment
T3 peptide: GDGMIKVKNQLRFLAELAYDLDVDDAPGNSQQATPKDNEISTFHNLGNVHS

biotinylated rat GPC3 = target: T4, biotinylated rat GPC3 (rat, UniProt P13265 25-558, limits assumed, biotinylated (site not stated)); assay: ELISA, biotinylated rat GPC3 on streptavidin plate
T4 construct: also called rat bt-GPC3; rat GPC3 peptide
T4 sequence (P13265 25-558 limits assumed): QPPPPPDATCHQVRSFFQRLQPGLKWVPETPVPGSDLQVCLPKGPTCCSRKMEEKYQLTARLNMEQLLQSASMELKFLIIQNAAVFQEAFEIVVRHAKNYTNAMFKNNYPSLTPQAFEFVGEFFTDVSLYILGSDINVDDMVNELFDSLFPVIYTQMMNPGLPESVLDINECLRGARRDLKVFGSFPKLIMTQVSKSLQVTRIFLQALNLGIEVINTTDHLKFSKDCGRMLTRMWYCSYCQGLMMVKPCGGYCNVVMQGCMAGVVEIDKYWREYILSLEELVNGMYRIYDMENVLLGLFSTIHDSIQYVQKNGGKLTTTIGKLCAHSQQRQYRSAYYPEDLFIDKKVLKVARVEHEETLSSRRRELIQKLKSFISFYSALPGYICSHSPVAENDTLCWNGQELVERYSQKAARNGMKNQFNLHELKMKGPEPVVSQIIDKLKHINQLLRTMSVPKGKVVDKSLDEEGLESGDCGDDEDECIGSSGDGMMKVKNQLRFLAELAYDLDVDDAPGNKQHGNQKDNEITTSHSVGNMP

B1: GPC3A-58 L2K (bispecific antibody)
chain: QSVLTQPPSVSVAPGKTARITCGGNNIGSKSVHWYQQKPGQAPVLVVYDDSDRPSGIPERFSGSNSGNTATLTISRVEAGDEADYYCQVWDSSSDHVFGTGTKVTVLGSRGGGGSGGGGSGGGGSLEMAQVQLVQSGADVRKPGASVKVSCKASGYTFASHGISWVRQAPGQGLEWLGWISPYTGNTNYAQKFQGRVTMATDTSTSTAYMELRSLRSDDTAIYYCARGKRTLASCFDYWGQGTLVTVSSTSGGGGSDVQLVQSGAEVKKPGASVKVSCKASGYTFTRYTMHWVRQAPGQGLEWIGYINPSRGYTNYADSVKGRFTITTDKSTSTAYMELSSLRSEDTATYYCARYYDDHYCLDYWGQGTTVTVSSGEGTSTGSGGSGGSGGADDIVLTQSPATLSLSPGERATLSCRASQSVSYMNWYQQKPGKAPKRWIYDTSKVASGVPARFSGSGSGTDYSLTINSLEAEDAATYYCQQWSSNPLTFGGGTKVEIKHHHHHH
notes: also called GPC3A L2K bispecific antibody #58
Question: For B1, which “Median : PE-A” value [1] is on record?
Answer: Its value is 8030.

Question: And the Kd [2]?
Answer: Its Kd is 2.4 nM.

Question: And the EC50 [3]?
Answer: Its EC50 is 0.12 mg/L.

Question: What about the Kd [4] of the same binder?
Answer: The Kd was 5.1 nM.

Question: What about the koff [4] of the same binder?
Answer: Its koff is 0.00188 s⁻¹.

Question: And the kon [4]?
Answer: Its kon is 368000 M⁻¹ s⁻¹.

B2: #64 GPC3A L2K (bispecific antibody)
tandem di-scFv: LPVLTQPPSLSVAPGKTARLTCGGNNIGSKSVHWYHQKPGQAPVLVVYDDTDRPSGIPERFSGSNSGNTAALTISRVEVGDEADYYCQVWDRSSAHWVFGGGTKLTVLGSRGGGGSGGGGSGGGGSLEMAQMQLVQSGAEVKKPGASVKVSCKASGYTFTIYGISWVRQAPGQGLEWMGWISPYNDNTIYAQKVQGRVTMTTDTSTSTAYMELRSLRSDDTAVYYCARMGVGWGYAQDSWGQGTLVTVSSTSGGGGSDVQLVQSGAEVKKPGASVKVSCKASGYTFTRYTMHWVRQAPGQGLEWIGYINPSRGYTNYADSVKGRFTITTDKSTSTAYMELSSLRSEDTATYYCARYYDDHYCLDYWGQGTTVTVSSGEGTSTGSGGSGGSGGADDIVLTQSPATLSLSPGERATLSCRASQSVSYMNWYQQKPGKAPKRWIYDTSKVASGVPARFSGSGSGTDYSLTINSLEAEDAATYYCQQWSSNPLTFGGGTKVEIKHHHHHH
notes: also called GPC3A-64 L2K; GPC3-64 L2K
Question: B2 was tested. Which “Median : PE-A” value [1] did it give?
Answer: Its value is 6600.

B3: GPC3A-38 phage clone (scFv)
scFv: QSVLTQPPSVSVAPGKTARITCGGNNIGSKSVHWYQQKPGQAPVLVIYYDSDRPSGIPERFSGSNSGNTATLTISRVEAGDEADYYCQVWDSSSDHVVFGGGTKLTVLGSRGGGGSGGGGSGGGGSLEMAQVQLVQSGAEVKKPGASVKVSCKASGYTFTSYYMHWVRQAPGQGLEWMGIINPSGGSTSYAQKFQGRVTMTRDTSTSTVYMELSSLRSEDTAVYYCARKVTGYDSWGQGTLVTVSS
notes: also called GPC3A-038
Question: Does B3 bind [5]?
Answer: Result: binds

B4: GPC3A-62 phage clone (scFv)
scFv: QSVLTQPPSVSGAPGQRVTISCTGSSSNIGAGYDVHWYQQLPGTAPKLLIYGNSNWPSGVPDRFSGSKSGTSASLAITGLRAEDEADYYCQSYDSSLSGSYVFGTGTKVTVLGSRGGGGSGGGGSGGGGSLEMAQMQLVQSGSELKKPGASVKVSCKASGGTFSSYAISWVRQAPGQGLEWMGGIIPKIGTANYAQKFQGRVTITADESTSTAYMELSSLRSEDTAMYYCARMYMDMGWGWGYWDWWGQGTLVTVSS
notes: also called GPC3A-062
Question: Does B4 bind [5]?
Answer: Result: binds

B5: GC33 L2K (bispecific antibody, V domains shown)
VH: QVQLQQSGAELVKPGASVKLSCKASGYTFTDYEMHWVKQTPVHGLKWMIGALDPKTGDTAYSQKFKGKATLTADKSSSTAYMELRSLTSEDSAVYYCTRFYSYTYWGQGTLVTVSA
VL: DVVMTQTPLSLPVSLGDQASISCRSSQSLVHSNGNTYLHWYLQKPGQSPKLLIYKVSNRFSGVPDRFSGSGSGTDFTLKISRVEAEDLGVYFCSQNTHVPPTFGSGTKLEIK
notes: Tested as a single-chain tandem di-scFv: scFv of GC33 fused to an anti-human CD3 epsilon scFv, with a hexahistidine tag; also called GC33 antibody converted to an L2K
Question: With B5 as the binder, how does the Kd [6] read?
Answer: The Kd was 2.7 nM.

Question: And the EC50 [7]?
Answer: Its EC50 is 0.14 mg/L.

B6: anti-GPC3 mIgG1 clone A-51 (antibody, V domains shown)
VH: QVQLVQSGAEVKKPGSSVKVSCKASGGAFSSYAISWVRQAPGQGLEWMGGIIPIFGTANYAQKFQGRVTITADESTSTAYMELSSLRSEDTAVYYCARMLYLSGRYYWDSWGQGTLVTVSS
VL: QAVLTQPSSASGAPGQRVTISCTGGSSNIGAGYDVHWYQQLPGTAPKLLIYGNSNRPSGVPDRFSGSKSGTSASLAITGLQAEDEADYYCQSYDSSLSGYVFGTGTKVTVLG
notes: Fused to mouse IgG1 heavy chain and light chain constant regions
Question: Does B6 bind [8]?
Answer: Result: binds

B7: anti-GPC3 mIgG1 clone A-64 (antibody, V domains shown)
VH: QMQLVQSGAEVKKPGASVKVSCKASGYTFTIYGISWVRQAPGQGLEWMGWISPYNDNTIYAQKVQGRVTMTTDTSTSTAYMELRSLRSDDTAVYYCARMGVGWGYAQDSWGQGTLVTVSS
VL: LPVLTQPPSLSVAPGKTARLTCGGNNIGSKSVHWYHQKPGQAPVLVVYDDTDRPSGIPERFSGSNSGNTAALTISRVEVGDEADYYCQVWDRSSAHWVFGGGTKLTVLG
notes: as for B6
Question: Does B7 bind [8]?
Answer: Result: binds

B8: GPC3A-37 phage clone (scFv)
scFv: QSVLTQPPSVSAAPGQRVTISCSGTRSNIGSDYVSWYQHLPGTAPKLLVYGDNLRPSGIPDRFSASKSGTSATLGITGLQTGDEADYYCGTWDYTLNGVVFGGGTKLTVLGSRGGGGSGGGGSGGGGSLEMAQVQLVESGGGLVQPGGSLRLSCAASGFTFSSYAMSWVRQAPGKGLEWVSVIYSGGSSTYYADSVKGRFTISRDNSKNTLYLQMNSLRAEDTAVYYCARTSYLNHGDYWGQGTLVTVSS
notes: also called GPC3A-037
Question: Does B8 bind [9]?
Answer: Result: no binding

B9: GPC3A-53 mIgG1 clone (antibody, V domains shown)
VH: QLQLQESGPGLVKPSETLSLTCTVSGGSISSSSYYWGWIRQPPGKGLEWIGSIYYSGSTYYNPSLKSRVTISVDTSKNQFSLKLSSVTAADTAVYYCARWWSGSYDTWGQGTLVTVSS
VL: QSVLTQPPSASAAPGQRVTISCSGTSSNIGSNYVWWYQQLPGAAPRLLIYGNSNRPSGVPDRFSGSKSGTSASLAITGLQAEDEADYYCQSYDSSLSGSNVFGTGTKVTVLG
notes: Mouse chimeric IgG1; also called GPC3A mIgG1 clone A-53
Question: Does B9 bind (biotinylated rat GPC3)?
Answer: Result: no binding (tested: 5 µg/mL)

B10: GPC3A-42 phage clone (scFv)
scFv: SYVLTQPPSASGTPGQRVTISCFGSSSDIGSNSVFWYQQLPGAAPKLLIYSTQYRPSGVPDRFSGSKSGTSASLAISGLQSEDEAEYHCATWDDSLNGYVFGSGTKVTVLGSRGGGGSGGGGSGGGGSLEMAQVQLQQSGAEVKKPGASVKVSCKASGYSFTGYYVYWMRQAPGKGLEWMGWMNPRSGGTNYAQKFQGRVTMTRDTSISTAYMELSRLTSDDTAVYYCARSSYYWADSWGQGTLVTVSS
notes: also called GPC3A-042
Question: Does B10 bind [9]?
Answer: Result: no binding

B11: GPC3A-43 phage clone (scFv)
scFv: QSVLTQPPSASGTPGQRVTISCSGSSSNIGTNYVYWYQQLPGTAPKLIIYRNNQRPSGVPDRFSGSESGTSASLAISGLRSEDEADYYCAVWDDSLSGVVFGGGTKLTVLGSRGGGGSGGGGSGGGGSLEMAEVQLVQSGAEVKKPGATVKVSCKVSGYTFTDYYMHWVQQAPGKGLEWMGLVDPEDGETIYAEKFQGRVTITADTSTDTAYMELSSLRSEDTAVYYCARELRDVAYYPWGVEDFWGQGTLVTVSS
notes: also called GPC3A-043
Question: Does B11 bind [9]?
Answer: Result: no binding
